{"source": "paper PMC10641069", "about": "“Intra- and inter-molecular regulation by intrinsically-disordered regions governs PUF protein RNA binding” (Nature Communications, 2023)", "key": {"gld-1 FBEa RNA": {"system": "gld-1 FBEa RNA", "assay": "Electrophoretic mobility shift assay (EMSA), RNA binding", "design": "species or system C. elegans", "details": "LST-1 B 50 μM", "description": "A 3′-Cy5-labeled synthetic RNA was ordered from IDT (gld-1 FBEa, 5′-[…]-3′). The FBF-2 proteins were serially diluted 2-fold from the highest concentration of 10 µM in the buffer used for gel filtration (20 mM HEPES pH 7.4, 150 mM NaCl, and 0.5 mM TCEP). 10 µl of the serially diluted protein samples were mixed with 10 µl RNA (10 nM) in a 2× buffer of 10 mM HEPES pH 7.4, 0.01% (v/v) Tween 20, 0.1 mg/ml BSA, 0.1 mg/ml yeast tRNA, and 2 mM DTT. For experiments in the presence of LST-1, LST-1 proteins at constant concentration were preincubated with FBF-2 at 4 °C for 2 h. The LST-1 concentrations were chosen based on their Kd’s for interaction with FBF-2. The final FBF-2 concentrations ranged from 5000 nM to 0.6 nM, and the LST-1 A or B concentrations were constant at 150 μM or 50 μM, respectively. The protein-RNA mixtures were incubated at 4 °C overnight. The samples were resolved on 10% TBE polyacrylamide gels run at constant voltage (100 V) with 1× TBE buffer at room temperature for 35 min. The gels were scanned and visualized with a Typhoon FLA 9500 imager using the Cy5 channel (excitation wavelength 635 nm). Band intensities were quantified with ImageQuant 5.2 (Cytiva). The data were fit with GraphPad Prism (version 9.2.0) using nonlinear regression with a one-site specific binding model. Mean Kd’s and standard error of the mean (SEM) from three or more technical replicates are reported (Supplementary Table 4). Full scan images for the replicates shown in the main figures and gel images for all replicates are included in a source data file."}, "FBF-2 RBD+CT Loop6A": {"target": "T1, FBF-2 RBD+CT Loop6A (Caenorhabditis elegans, UniProt Q09312, D594A/E592A/E597A/E599A/E604A/E605A)", "T1 construct": "A cDNA fragment encoding C. elegans FBF-2 RBD + CT (residues 164-632) was cloned into the pSMT3 vector; His6-SUMO (N, cleaved yes); made in house; host or cells: E. coli BL21-CodonPlus (DE3)-RIL (as for wild type)", "T1 sequence (Q09312 164-632 E592A/D594A/E597A/E599A/E604A/E605A)": "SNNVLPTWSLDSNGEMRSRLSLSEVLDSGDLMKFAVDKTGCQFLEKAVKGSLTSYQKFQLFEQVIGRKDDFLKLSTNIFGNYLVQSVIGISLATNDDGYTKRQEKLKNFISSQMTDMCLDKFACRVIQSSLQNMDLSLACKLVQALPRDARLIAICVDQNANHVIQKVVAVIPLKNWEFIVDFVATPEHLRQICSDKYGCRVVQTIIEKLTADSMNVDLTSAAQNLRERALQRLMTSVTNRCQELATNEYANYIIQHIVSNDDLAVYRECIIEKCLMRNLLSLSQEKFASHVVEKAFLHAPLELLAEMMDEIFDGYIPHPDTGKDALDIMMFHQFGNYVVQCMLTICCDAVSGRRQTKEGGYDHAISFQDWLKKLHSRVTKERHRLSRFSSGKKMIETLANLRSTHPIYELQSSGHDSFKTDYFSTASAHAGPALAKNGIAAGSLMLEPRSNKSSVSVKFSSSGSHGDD", "assay": "ITC, peptide into FBF-2 RBD + CT Loop6A, no RNA", "type": "binding, C. elegans", "details": "20 °C, pH 7.4", "description": "Experiments were performed at 20 °C using a MicroCal PEAQ-ITC Automated (Malvern Instruments) with a 200-μL standard cell and a 40-μL titration syringe. FBF-2 and LST-1 variants were prepared in a buffer of 20 mM HEPES pH 7.4, 150 mM NaCl, and 0.5 mM TCEP by gel filtration. LST-1 (100–400 µM) was titrated from the syringe into the cell containing FBF-2 (10–30 µM) in 2 µl aliquots. Experiments were performed in duplicate due to the limitation of the amount of protein needed. Data were analyzed using the MicroCal PEAQ-ITC Analysis Software (version 1.40) provided by the manufacturer with the one-site model (Table S3).\nSupplementary Table 3. Protein interaction affinities, stoichiometries, and thermodynamic parameters between FBF-2 CT/LST-1 variants and FBF-2 measured by ITC. Two technical replicates (n=2 independent experiments) were performed for each analysis with similar results, and the values are shown for each replicate. Source data are provided as a Source Data file. […]\nRBD+CT LST-1 A none Not detected\nRBD FBF-2 CT none Not detected\n1 Reported previously 18."}, "FBF-2 RBD+CT Y479A": {"target": "T2, FBF-2 RBD+CT Y479A (Caenorhabditis elegans, UniProt Q09312 164-632, Y479A)", "T2 sequence": "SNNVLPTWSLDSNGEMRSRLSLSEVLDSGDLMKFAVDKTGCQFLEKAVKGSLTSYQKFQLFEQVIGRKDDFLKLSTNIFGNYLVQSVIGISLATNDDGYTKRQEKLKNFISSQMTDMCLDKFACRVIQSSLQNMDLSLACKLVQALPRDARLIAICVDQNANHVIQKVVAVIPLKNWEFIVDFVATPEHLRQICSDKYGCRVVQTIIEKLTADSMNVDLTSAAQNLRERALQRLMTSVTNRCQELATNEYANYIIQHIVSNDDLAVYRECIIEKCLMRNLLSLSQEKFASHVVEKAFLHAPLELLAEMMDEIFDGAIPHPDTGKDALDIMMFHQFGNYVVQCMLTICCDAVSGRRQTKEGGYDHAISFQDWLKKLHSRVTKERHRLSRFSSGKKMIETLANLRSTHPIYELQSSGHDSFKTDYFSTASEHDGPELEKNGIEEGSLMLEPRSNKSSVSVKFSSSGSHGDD", "assay": "EMSA; 50 uM LST-1 B present (Y479A disrupts LST-1 binding, no complex); EMSA: FBF-2 in 20 mM HEPES pH 7.4, 150 mM NaCl, 0.5 mM TCEP mixed 1:1 with 5 nM final RNA in 10 mM HEPES pH 7.4, 0.01% Tween 20, 0.1 mg/ml BSA, 0.1 mg/ml yeast", "details": "protein: recombinant; tags: none (His6-SUMO removed with Ulp1); label: 3'-Cy5"}}}
{"molecule": "LST-1 B: LST-1 B peptide, residues 67–98, expressed in E. coli (SSSPQQRSGLRSQKLHLTYIEKNKRVRAMIPQ; left off: His6-SUMO, N-terminal, cleaved)", "values": [{"measurement": "effect on RNA-binding affinity", "setting": "gld-1 FBEa RNA; of FBF-2 RBD + CT L610A", "value": "little to no effect"}, {"measurement": "effect on RNA-binding affinity", "setting": "gld-1 FBEa RNA; of FBF-2 RBD + CT Y479A", "value": "no effect"}, {"measurement": "-T∆S", "setting": "FBF-2 RBD+CT Loop6A; replicate 1", "value": 21.2, "unit": "kJ/mol"}, {"measurement": "∆G", "setting": "FBF-2 RBD+CT Loop6A; replicate 1", "value": -33.5, "unit": "kJ/mol"}, {"measurement": "∆H", "setting": "FBF-2 RBD+CT Loop6A; replicate 1", "value": -54.8, "unit": "kJ/mol"}, {"measurement": "-T∆S", "setting": "FBF-2 RBD+CT Loop6A; replicate 2", "value": 15.0, "unit": "kJ/mol"}, {"measurement": "∆G", "setting": "FBF-2 RBD+CT Loop6A; replicate 2", "value": -33.1, "unit": "kJ/mol"}, {"measurement": "∆H", "setting": "FBF-2 RBD+CT Loop6A; replicate 2", "value": -48.1, "unit": "kJ/mol"}]}
{"molecule": "AUCAUGUGCCAUAC (ssRNA)", "note": "[gld-1 FBEa RNA (EMSA)]", "values": [{"measurement": "Kd", "setting": "FBF-2 RBD+CT Y479A", "value": "41 ± 6", "unit": "nM"}]}
